What was measured:
[1] = target: T1, MTBR-tau (microtubule binding region tau) in CSF (Homo sapiens); assay: E2814-bound and free MTBR-tau in CSF after a single E2814 infusion of 30 mg/kg
[2] = target: T1, MTBR-tau (microtubule binding region …); assay: E2814-bound and free MTBR-tau in CSF after a single E2814 infusion of 10 mg/kg
[3] = target: T1, MTBR-tau (microtubule binding region …); assay: E2814-bound and free MTBR-tau in CSF after a single E2814 infusion of 3 mg/kg

B1: E2814 (antibody, V domains shown)
VH: EVQLLESGGGLVQPGGSLRLSCAASGYTFTTYWITWVRQAPGKGLEWVSDIYPGSSISNYNEKFKSRFTISVDNSKNTLYLQMNSLRAEDTAVYYCAREDGYDAWFAYWGQGTLVTVSS
VL: DIQMTQSPSSLSASVGDRVTITCRSSQSILHSNGNTYLEWYQQKPGKAPKLLISKVSNRFSGVPSRFSGSGSGTDFTLTISSLQPEDFATYYCFQGSHVPFTFGQGTKLEIKR
- target engagement (TE), fraction (%) of bound MTBR-tau relative to total MTBR-tau [1]: ~60%
- target engagement (TE), fraction (%) of bound MTBR-tau relative to total MTBR-tau [2]: ~45%
- target engagement (TE), fraction (%) of bound MTBR-tau relative to total MTBR-tau [3]: ~26%

Reference: patent US20250051427A1, “METHODS OF USING AN ANTI-AMYLOID BETA PROTOFIBRIL ANTIBODY AND ANTI-TAU ANTIBODY” (published 2025)
